Source: PMC3058308 (Nature, 2011)
One block for each molecule: values may come before it.

How the values were obtained:
β2AR-T4L = assay type: binding, human
mBB-β2AR/HDL = mBB-β2AR/HDL (Homo sapiens, UniProt P07550); experiment: Bimane fluorescence spectroscopy on mBB-β2AR reconstituted in HDL particles; assay type: biochemical
[1] = target: β2 adrenergic receptor truncated at position 365, reconstituted in HDL particles (Homo sapiens (Human)., UniProt P07550); experiment: radioligand binding

Ki (β2AR-T4L; read-out: Ki in the presence of Nb80, β2AR-T4L/HDL, Nb80 1 μM, 0.6 nM [3H]-DHA): 0.56 nM
increase of affinity in the presence of Nb80 (β2AR-T4L; β2AR-T4L/HDL with Nb80 versus without): 60 fold
Molecule: isoproterenol

effect on bimane fluorescence of β2AR bound to inverse agonist ICI-118,551 (mBB-β2AR/HDL; 300 nM Nb80, 1 μM ICI): not observed
effect on bimane fluorescence in the presence of isoproterenol (mBB-β2AR/HDL; 300 nM Nb80, 10 μM isoproterenol): increased
binding result [1]: binds
B1: Nanobody-80 (VHH)
VHH: QVQLQESGGGLVQAGGSLRLSCAASGSIFSINTMGWYRQAPGKQRELVAAIHSGGSTNYANSVKGRFTISRDNAANTVYLQMNSLKPEDTAVYYCNVKDYGAVLYEYDYWGQGTQVTVSS
